Data on 19 molecules can be found in US20260242478A1 (published 2026).

The target of experiment [1] is T1, PSMA Fab.
T1 construct: also called Anti-PSMA Fab; 006 PSMA Fab
Description: clonal phage ELISA on captured PSMA Fab pre-incubated with PSMA antigen as competitor, anti-M13 HRP detection.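 Further: crude clonal phage supernatants tested by ELISA, wells first treated with blocking buffer plus PSMA antigen, bound phage read out via HRP-linked anti-M13 antibody.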 On the technique in general: ELISA stands for enzyme-linked immunosorbent assay.
Description: (§1) Clonal phage were harvested as crude supernatants and screened via standard ELISAs. […] Prior to the addition of clonal phage. wells were incubated with blocking buffer and PSMA antigen or blocking buffer alone. Without washing or aspirating, clonal phage supernatants were then added to the wells and incubated for a short time. Wells were then washed followed by detection of bound phage using a horse radish conjugated anti-M13 antibody.

Experiment [2] addresses T1, PSMA Fab. Kind of experiment: clonal phage ELISA on biotinylated PSMA Fab captured on neutravidin plates, anti-M13 HRP detection, blocking buffer alone.
Description: as §1
In experiment [3] the target is T2, PSMA Fab (006 PSMA Fab).
T2 construct: also called Anti-PSMA Fab; anti-PSMA Fab
Kind of experiment: clonal phage ELISA; biotinylated PSMA Fab on neutravidin plate, blocking buffer alone; anti-M13 HRP detection.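 Further: crude clonal phage supernatants added without washing to wells pretreated with blocking buffer with or without PSMA antigen, short incubation, then washed before detecting bound phage.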
Description: as §1

Experiment [4] concerns the target T2, PSMA Fab (006 PSMA Fab). Description: clonal phage ELISA; biotinylated PSMA Fab on neutravidin plate pre-incubated with PSMA antigen as competitor; anti-M13 HRP detection.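 Further: crude clonal phage supernatants briefly incubated on wells preloaded with PSMA antigen in blocking buffer, or buffer only as control, bound phage detected with HRP-conjugated anti-M13 antibody.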
Description: as §1

Where no end group is shown, it is not given here.

B1: Phage-3145 (peptide)
peptide: IERSCTPSWMCHGF
modifications: cysteine pairing not given here; also: fused to phage pIII, orientation and linker not given here
notes: Clonal phage of the Peptide-180 library, tested as crude supernatant; not shown: fused to pIII of the bacteriophage
Consider B1, for which, in experiment [1], the “phage binding ELISA signal (Anti-PSMA Fab, PSMA antigen present)” value was 0.072. Also, the “Phage binding ELISA signal, Anti-PSMA Fab” value in experiment [2] was determined as 2.05.

B2: Phage-3141 (peptide)
peptide: YERVCEPLWMCTGF
modifications: cysteine pairing not given here; also: fused to phage pIII, orientation and linker not given here
Take B2: the “Phage binding ELISA signal, Anti-PSMA Fab” value in experiment [3] was 2.05. The “Phage binding ELISA signal, Anti-PSMA Fab in presence of PSMA” value (“Phage binding ELISA signal … of PSMA” for short) in experiment [4] was 0.0802.

B3: Phage-3135 (peptide)
peptide: HQLMCRPAWMCEGF
modifications: cysteine pairing not given here; also: fused to phage pIII, orientation and linker not given here
In the case of B3, the “Phage binding ELISA signal, Anti-PSMA Fab” value in experiment [3] stood at 2.06. Further, the “Phage binding ELISA signal … of PSMA” value in experiment [4] came to 0.118.

B4: Phage-3134 (peptide)
peptide: AERLCVPAWMCLNL
modifications: cysteine pairing not given here; also: fused to phage pIII, orientation and linker not given here
Take B4: the “Phage binding ELISA signal, Anti-PSMA Fab” value in experiment [3] worked out at 2.06. For the same molecule, in experiment [4], the “Phage binding ELISA signal … of PSMA” value stood at 0.0543.

B5: Phage-3138 (peptide)
peptide: DTRICKPEWMCMGM
modifications: cysteine pairing not given here; also: fused to phage pIII, orientation and linker not given here
Consider B5, for which the “Phage binding ELISA signal, Anti-PSMA Fab” value in experiment [3] was 2.06. Moreover, the “Phage binding ELISA signal … of PSMA” value in experiment [4] was determined as 0.107.

B6: Phage-3136 (peptide)
peptide: VVQICKPSWMCEGF
modifications: cysteine pairing not given here; also: fused to phage pIII, orientation and linker not given here
As for B6, in experiment [3], the “Phage binding ELISA signal, Anti-PSMA Fab” value came to 2.06. In addition, the “Phage binding ELISA signal … of PSMA” value in experiment [4] came out at 0.102.

B7: Phage-3147 (peptide)
peptide: FEMFCIPAWMCSGL
modifications: cysteine pairing not given here; also: fused to phage pIII, orientation and linker not given here
notes: as for B1
As for B7, in experiment [1], the “phage binding ELISA signal (Anti-PSMA Fab, PSMA antigen present)” value is 0.0821. Also, in experiment [2], the “Phage binding ELISA signal, Anti-PSMA Fab” value came to 2.05.

B8: Phage-3137 (peptide)
peptide: IVPKCQPSWMCFGF
modifications: cysteine pairing not given here; also: fused to phage pIII, orientation and linker not given here
Regarding B8, the “Phage binding ELISA signal, Anti-PSMA Fab” value in experiment [3] came to 2.06. The “Phage binding ELISA signal … of PSMA” value in experiment [4] was 0.0991.

B9: Phage-3133 (peptide)
peptide: YERSCVPSWMCEGF
modifications: cysteine pairing not given here; also: fused to phage pIII, orientation and linker not given here
On to B9, for which the “Phage binding ELISA signal, Anti-PSMA Fab” value in experiment [3] turned out to be 2.06. Besides, the “Phage binding ELISA signal … of PSMA” value in experiment [4] amounted to 0.066.

B10: Phage-3148 (peptide)
peptide: AEYMCIPSWMCHGM
modifications: cysteine pairing not given here; also: fused to phage pIII, orientation and linker not given here
notes: as for B1
Turning to B10, in experiment [1], the “phage binding ELISA signal (Anti-PSMA Fab, PSMA antigen present)” value amounted to 0.0861. The “Phage binding ELISA signal, Anti-PSMA Fab” value in experiment [2] was 2.05.

B11: Phage-3146 (peptide)
peptide: GPIMCQPRWMCEGF
modifications: cysteine pairing not given here; also: fused to phage pIII, orientation and linker not given here
notes: as for B1
As for B11, the “phage binding ELISA signal (Anti-PSMA Fab, PSMA antigen present)” value in experiment [1] amounted to 0.0807. Moreover, the “Phage binding ELISA signal, Anti-PSMA Fab” value in experiment [2] came to 2.05.

B12: Phage-3139 (peptide)
peptide: TAPVCVPWWMCEGF
modifications: cysteine pairing not given here; also: fused to phage pIII, orientation and linker not given here
In the case of B12, the “Phage binding ELISA signal, Anti-PSMA Fab” value in experiment [3] is 2.05. Besides, the “Phage binding ELISA signal … of PSMA” value in experiment [4] came out at 0.0757.

B13: Phage-3151 (peptide)
peptide: FPRLCEPLWMCKGF
modifications: cysteine pairing not given here; also: fused to phage pIII, orientation and linker not given here
notes: as for B1
Regarding B13, the “phage binding ELISA signal (Anti-PSMA Fab, PSMA antigen present)” value in experiment [1] came out at 0.0987. Also, the “Phage binding ELISA signal, Anti-PSMA Fab” value in experiment [2] was found to be 2.04.

B14: Phage-3142 (peptide)
peptide: AGVYCTPMWMCTGF
modifications: cysteine pairing not given here; also: fused to phage pIII, orientation and linker not given here
For the molecule B14, the “Phage binding ELISA signal, Anti-PSMA Fab” value in experiment [3] was found to be 2.05. Moreover, the “Phage binding ELISA signal … of PSMA” value in experiment [4] was 0.0775.

B15: Phage-3149 (peptide)
peptide: LLPACKPTWMCTGL
modifications: cysteine pairing not given here; also: fused to phage pIII, orientation and linker not given here
notes: as for B1
Take B15: the “phage binding ELISA signal (Anti-PSMA Fab, PSMA antigen present)” value in experiment [1] is 0.135. Besides, the “Phage binding ELISA signal, Anti-PSMA Fab” value in experiment [2] worked out at 2.04.

B16: Phage-3144 (peptide)
peptide: HLPRCEPAWMCHGF
modifications: cysteine pairing not given here; also: fused to phage pIII, orientation and linker not given here
notes: as for B1
B16: the “phage binding ELISA signal (Anti-PSMA Fab, PSMA antigen present)” value in experiment [1] worked out at 0.0904. The “Phage binding ELISA signal, Anti-PSMA Fab” value in experiment [2] amounted to 2.05.

B17: Phage-3140 (peptide)
peptide: IDTICRPSWMCLGF
modifications: cysteine pairing not given here; also: fused to phage pIII, orientation and linker not given here
In the case of B17, the “Phage binding ELISA signal, Anti-PSMA Fab” value in experiment [3] amounted to 2.05. Besides, the “Phage binding ELISA signal … of PSMA” value in experiment [4] came to 0.0788.

B18: Phage-3143 (peptide)
peptide: SVPLCIPEWMCVGF
modifications: cysteine pairing not given here; also: fused to phage pIII, orientation and linker not given here
notes: as for B1
For B18, the “phage binding ELISA signal (Anti-PSMA Fab, PSMA antigen present)” value in experiment [1] was 0.106. Further, the “Phage binding ELISA signal, Anti-PSMA Fab” value in experiment [2] was determined as 2.05.

B19: Phage-3150 (peptide)
peptide: DAPLCKPQWMCSGF
modifications: cysteine pairing not given here; also: fused to phage pIII, orientation and linker not given here
notes: as for B1
For the molecule B19, the “phage binding ELISA signal (Anti-PSMA Fab, PSMA antigen present)” value in experiment [1] was 0.0854. For the same molecule, the “Phage binding ELISA signal, Anti-PSMA Fab” value in experiment [2] was determined as 2.04.
